This note sets out measurements from publication PMC10442425.

In this experiment the target is recombinant SARS-CoV-2 envelope (E) protein, His-tagged (SARS-CoV-2) (UniProt P0DTC4). Put plainly: SPR; Biacore 8K, 25 °C, PBS-P buffer; His-tagged E protein captured on NTA chip; recombinant human CD36 injected at 400 nM to 12.5 nM, parallel kinetics; 1:1 binding model. Background: SPR reads the build-up and loss of mass on a sensor chip optically.

Consider “recombinant human CD36 protein (from UniProt P16671 1-472) (receptor)”, for which the equilibrium dissociation constant (Kd) (commonly a measure of binding affinity in units of concentration) worked out at 55 nM.
